Results taken from IntAct's records for PubMed 21135237.

B1: Glutamate receptor 1 (Rattus norvegicus (Rat)), P19490 (parent)
chain: MPYIFAFFCTGFLGAVVGANFPNNIQIGGLFPNQQSQEHAAFRFALSQLTEPPKLLPQIDIVNISDSFEMTYRFCSQFSKGVYAIFGFYERRTVNMLTSFCGALHVCFITPSFPVDTSNQFVLQLRPELQEALISIIDHYKWQTFVYIYDADRGLSVLQRVLDTAAEKNWQVTAVNILTTTEEGYRMLFQDLEKKKERLVVVDCESERLNAILGQIVKLEKNGIGYHYILANLGFMDIDLNKFKESGANVTGFQLVNYTDTIPARIMQQWRTSDSRDHTRVDWKRPKYTSALTYDGVKVMAEAFQSLRRQRIDISRRGNAGDCLANPAVPWGQGIDIQRALQQVRFEGLTGNVQFNEKGRRTNYTLHVIEMKHDGIRKIGYWNEDDKFVPAATDAQAGGDNSSVQNRTYIVTTILEDPYVMLKKNANQFEGNDRYEGYCVELAAEIAKHVGYSYRLEIVSDGKYGARDPDTKAWNGMVGELVYGRADVAVAPLTITLVREEVIDFSKPFMSLGISIMIKKPQKSKPGVFSFLDPLAYEIWMCIVFAYIGVSVVLFLVSRFSPYEWHSEEFEEGRDQTTSDQSNEFGIFNSLWFSLGAFMQQGCDISPRSLSGRIVGGVWWFFTLIIISSYTANLAAFLTVERMVSPIESAEDLAKQTEIAYGTLEAGSTKEFFRRSKIAVFEKMWTYMKSAEPSVFVRTTEEGMIRVRKSKGKYAYLLESTMNEYIEQRKPCDTMKVGGNLDSKGYGIATPKGSALRNPVNLAVLKLNEQGLLDKLKNKWWYDKGECGSGGGDSKDKTSALSLSNVAGVFYILIGGLGLAMLVALIEFCYKSRSESKRMKGFCLIPQQSINEAIRTSTLPRNSGAGASGGGGSGENGRVVSQDFPKSMQSIPCMSHSSGMPLGATGL

Variants of: B1
Details: with kcc2a_rat Camk2a
S567A was tested, and the “effect of a mutation on the interaction” value was “disrupting interaction”.
